Molecular target: bovine RNase B, biotinylated (bovine) (UniProt P61823)
Assay: BLI; biotinylated RNase B captured on streptavidin biosensors; purified fimbriae at 50 and 100 nM as analyte; 0.2% BSA in HBS; global fit: conformational change model for FimH^wt, 1:1 Langmuir model for FimH^FocH; one representative experiment

UniProt P61823, sequence (P61823 27-150): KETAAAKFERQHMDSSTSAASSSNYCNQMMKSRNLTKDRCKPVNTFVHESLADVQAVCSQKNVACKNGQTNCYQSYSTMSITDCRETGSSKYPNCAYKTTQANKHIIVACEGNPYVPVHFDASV

Substance: purified type 1 fimbriae carrying wild-type FimH adhesin (FimH^wt) of E. coli K12 (from UniProt P08191 22-300) (complex)
- Kd: 149 nM
- kact (rate of transition from LAS to HAS, conformational change model): 0.0072 s⁻¹
- kinact (rate of transition from HAS to LAS, conformational change model): 0.0128 s⁻¹
- koff (LAS dissociation rate, conformational change model): 0.256 s⁻¹
- kon (LAS association rate, conformational change model): 1.1e+06 M⁻¹ s⁻¹

Reference: paper PMC8064603
